Measurements as given in paper PMC7712654.

Target: α-CT coiled-coil domain fused with HIS tag (α-CT-His), fluorescently labeled (Arabidopsis thaliana)
Assay: MST
Conditions: domain or fragment

α-CT coiled-coil domain fused with HIS tag (α-CT-His), fluorescently labeled (Arabidopsis thaliana), sequence (Q9LD43 420-769): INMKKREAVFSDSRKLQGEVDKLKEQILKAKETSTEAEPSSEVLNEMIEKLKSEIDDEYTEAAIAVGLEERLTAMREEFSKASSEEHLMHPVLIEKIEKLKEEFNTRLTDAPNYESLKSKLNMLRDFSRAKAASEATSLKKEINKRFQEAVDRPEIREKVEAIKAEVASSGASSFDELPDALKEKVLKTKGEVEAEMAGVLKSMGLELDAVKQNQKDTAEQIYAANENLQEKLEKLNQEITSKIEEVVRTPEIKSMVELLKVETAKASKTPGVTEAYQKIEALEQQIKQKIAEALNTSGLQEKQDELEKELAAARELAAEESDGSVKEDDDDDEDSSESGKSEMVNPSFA

coiled-coil domain of CTI2, GST tag removed by thrombin
Kd: 1.4 µM
